The results in this text go back to article PMC5288196, “Native and engineered tropism of vectors derived from a rare species D adenovirus serotype 43” (Oncotarget, 2016).

This assay addresses T1, adenovirus serotype 5 virions (human adenovirus serotype 5).
T1 chain: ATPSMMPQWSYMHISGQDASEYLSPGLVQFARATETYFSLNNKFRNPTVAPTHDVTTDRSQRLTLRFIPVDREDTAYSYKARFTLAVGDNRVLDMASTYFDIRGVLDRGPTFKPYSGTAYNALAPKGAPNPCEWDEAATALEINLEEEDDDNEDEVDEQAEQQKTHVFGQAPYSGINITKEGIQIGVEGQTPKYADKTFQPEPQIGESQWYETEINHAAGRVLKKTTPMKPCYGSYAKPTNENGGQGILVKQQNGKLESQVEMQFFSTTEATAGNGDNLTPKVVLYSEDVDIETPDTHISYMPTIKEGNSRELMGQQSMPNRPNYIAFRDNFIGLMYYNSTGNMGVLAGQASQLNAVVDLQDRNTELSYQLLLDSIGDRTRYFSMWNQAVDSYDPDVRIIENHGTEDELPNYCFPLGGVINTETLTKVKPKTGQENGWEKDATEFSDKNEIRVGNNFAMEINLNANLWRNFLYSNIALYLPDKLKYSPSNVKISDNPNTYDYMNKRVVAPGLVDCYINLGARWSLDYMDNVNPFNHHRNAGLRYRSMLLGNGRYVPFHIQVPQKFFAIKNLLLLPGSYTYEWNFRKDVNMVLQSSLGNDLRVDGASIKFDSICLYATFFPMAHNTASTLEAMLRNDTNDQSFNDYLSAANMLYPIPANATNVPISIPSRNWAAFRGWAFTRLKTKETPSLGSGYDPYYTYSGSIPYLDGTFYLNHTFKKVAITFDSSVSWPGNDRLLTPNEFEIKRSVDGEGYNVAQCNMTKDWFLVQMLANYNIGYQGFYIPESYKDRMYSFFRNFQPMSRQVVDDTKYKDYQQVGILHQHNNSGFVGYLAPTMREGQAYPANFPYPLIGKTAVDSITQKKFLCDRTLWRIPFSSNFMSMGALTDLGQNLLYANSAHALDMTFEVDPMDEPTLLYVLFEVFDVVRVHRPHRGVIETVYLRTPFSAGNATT
Nature of the assay: SPR; Ad virions immobilised on the chip, probed with soluble FX in serial two-fold dilutions from 0.4 to 25 μg/ml, in duplicates. The note with it: both partners purified. For orientation: Surface plasmon resonance follows binding to a sensor surface in real time, without labels.

B1: blood coagulation factor X (natural protein)
chain 1: ANSFLEEMKKGHLERECMEETCSYEEAREVFEDSDKTNEFWNKYKDGDQCETSPCQNQGKCKDGLGEYTCTCLEGFEGKNCELFTRKLCSLDNGDCDQFCHEEQNSVVCSCARGYTLADNGKACIPTGPYPCGKQTLER
chain 2: SVAQATSSSGEAPDSITWKPYDAADLDPTENPFDLLDFNQTQPERGDNNLTRIVGGQECKDGECPWQALLINEENEGFCGGTILSEFYILTAAHCLYQAKRFKVRVGDRNTEQEEGGEAVHEVEVVIKHNRFTKETYDFDIAVLRLKTPITFRMNVAPACLPERDWAESTLMTQKTGIVSGFGRTHEKGRQSTRLKMLEVPYVDRNSCKLSSSFIITQNMFCAGYDTKQEDACQGDSGGPHVTRFKDTYFVTGIVSWGEGCARKGKYGIYTKVTAFLKWIDRSMKTRGLPKAKSHAPEVITSSPLK
modifications: Zymogen FX assumed (not FXa): light chain disulfide-linked to heavy chain with the activation peptide retained. Gamma-carboxylated Gla domain, beta-hydroxy-Asp, N-/O-glycosylation; Ca2+-bound state …
As to B1, the equilibrium dissociation constant (Kd) (commonly the free concentration of one partner at which half of the binding sites on the other are occupied at equilibrium, for simple one-to-one binding) came out at 1.5 nM.
